Experimental data taken from paper PMC7937711, “Development and Characterization of Nanobodies Targeting the Kupffer Cell” (Frontiers in Immunology, 2021).
Residue numbers refer to the chain shown, from its start. Like-named read-outs stand apart in the source and are kept apart here. Values belong to the binder of their own block, whether it stands above or below them.

Key:
[1] = target: T1, recombinant mouse Clec4F (CLEC4F/CLECSF13), soluble extracellular domain Ala65-Gly548 (Mus musculus, UniProt P70194)
[2] = target: T1, recombinant mouse Clec4F …; assay: SPR; Biacore T200; 400 RU of recombinant mouse Clec4F coupled to a CM5 chip; nanobodies flown at 30 ul/min at 1-400 nM; 1:1 binding model; settings: both partners purified
[3] = target: T1, recombinant mouse Clec4F …; assay: as above; settings: both partners purified; remark: listed apart in the source
[4] = target: T1, recombinant mouse Clec4F …; assay: SPR; epitope binning: Clec4F immobilised on the chip; 1st nanobody injected (50 nM) to saturation, then a mix of 1st and 2nd nanobody; extra RU read; settings: both partners purified
[5] = target: Nb3.60 (alpaca (Vicugna pacos)); assay: SDS-PAGE; 10% SDS-PAGE with Coomassie staining of the nanobody preparations after IMAC and dialysis
[6] = target: T2, recombinant mouse Clec4F (CLEC4F/CLECSF13), soluble extracellular domain Ala65-Gly548 (mouse) (UniProt P70194); assay: SPR; Biacore T200; 400 RU of recombinant mouse Clec4F coupled to a CM5 chip; nanobodies flown at 30 ul/min at 1-400 nM; 1:1 binding model
T2 sequence: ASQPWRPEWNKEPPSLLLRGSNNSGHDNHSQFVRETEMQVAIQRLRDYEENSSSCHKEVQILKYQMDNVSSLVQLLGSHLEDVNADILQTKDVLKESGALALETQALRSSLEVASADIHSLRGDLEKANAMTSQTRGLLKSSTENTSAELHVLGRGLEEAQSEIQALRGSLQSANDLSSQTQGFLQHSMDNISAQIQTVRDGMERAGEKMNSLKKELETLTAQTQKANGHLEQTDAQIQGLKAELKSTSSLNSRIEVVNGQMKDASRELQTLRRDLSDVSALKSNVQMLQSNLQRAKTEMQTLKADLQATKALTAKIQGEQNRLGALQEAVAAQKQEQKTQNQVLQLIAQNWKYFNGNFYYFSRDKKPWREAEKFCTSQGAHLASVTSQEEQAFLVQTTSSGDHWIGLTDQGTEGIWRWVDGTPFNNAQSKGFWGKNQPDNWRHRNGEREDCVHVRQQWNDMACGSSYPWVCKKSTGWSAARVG

[7] = target: Nb1.46 (alpaca (Vicugna pacos)); assay: SDS-PAGE; 10% SDS-PAGE with Coomassie staining of the nanobody preparations after IMAC and dialysis

binding result [1]: binds
B1: Nb 7.24 (VHH)
VHH: QVQLVESGGGLVQPGGSLRLSCAASGFTLDYYAIGWFRQAPGKEREGVSCIASDGGSTKYADSVKGRFTISRDSAKNTVYLQMNSLKPEDTAIYYCAAGRPGYCSGYALKEIYPYRDWGQGTQVTVSS

binding result [1]: binds
B2: Nb 4.39 (VHH)
VHH: DVQLVESGGGLVQPGGSLRLSCAASGSNVDIATISWYRQGTGNQREFVAYITPRGNTLYGASVTGRFTISRDNAKNTVYLQMNSLRFDDTAVYYCNVARLGRNYWGQGTQVTVSS

Kd [2]: 2000 pM
koff [2]: 0.00231 s⁻¹
kon [2]: 1.16e+06 M⁻¹ s⁻¹
B3: Nb6.4 (VHH)
VHH: QVQLVESGGGLVQPGGSLTLSCAASGFTISNYAMKWDRQAPGKGFEWVSTINSDGDNTSYRDSVKGRFTISRDNAKNTLYLQMNSLKPEDTAVYYCSNGGRRGQGTQVTVSS
notes: also called R3-4; group G6; source: E. coli WK6 periplasm, purified (IMAC Ni-NTA, dialysis)

binding result [3]: binds
B9: Nb5.10 (VHH)
VHH: QVQLVESGGGLVQPGGSLRLSCAANVSSFRFAAMGWYRQVQGKRRELVATITRDGVSNYVEPMKGRFTISRDNGKNTVYLQMNHLQPEDTAVYYCAAKISPFGGTWTPDYWGQGTQVTVSS
notes: also called R3-10; group G5; source: E. coli WK6 periplasm, purified (IMAC Ni-NTA, dialysis)

Kd [2]: 1200 pM
koff [2]: 0.00654 s⁻¹
kon [2]: 5.43e+06 M⁻¹ s⁻¹
B11: Nb11.28 (VHH)
VHH: QVQLVESGGGLVQAGASLRLSCAASGGTFSNYRMAWFRQAPGKEREFVSLITRSGGSTYYADSVKGRFTISRDNAQNTVSLQMNTLKPEDTAVYTCAATPRFDSGSYYTRTNGYDYWGQGTQVTVSS
notes: also called R3-28; group G11; source: E. coli WK6 periplasm, purified (IMAC Ni-NTA, dialysis)

stoichiometry N [5]: 2
Kd [2]: 618 pM
koff [2]: 0.00475 s⁻¹
kon [2]: 7.69e+06 M⁻¹ s⁻¹
B12: Nb3.60 (VHH)
VHH: QVQLVESGGGLVQPGGSLRLSCVASGTIFSMYGVYWYRQAPGNQREVVAWISSSGNTNYVNAVKGRFTISRDNAKNTTWLQMHSLKPEDAAVYYCRLGMNYWGKGTQVTVSS
notes: The preparation held dimers beside monomers (SDS-PAGE); also called R2-60; group G3; source: E. coli WK6 periplasm, purified (IMAC Ni-NTA, dialysis)

Kd [2]: 510 pM
koff [2]: 0.000756 s⁻¹
kon [2]: 1.48e+06 M⁻¹ s⁻¹
B14: Nb6.18 (VHH)
VHH: DVQLGESGGGLVQPGGSLRLSCAASGFTFSSYAMRWVRQAPGKALEWVADINSSGAYTNYRDSVTGRFIISRDNVKNTLYLQMDNMKPEDTAVYYCTTGGQRGQGTQVTVSS
notes: also called R3-18; group G6; source: E. coli WK6 periplasm, purified (IMAC Ni-NTA, dialysis)

koff [6]: 0.0606 s⁻¹
kon [6]: 3.06e+07 M⁻¹ s⁻¹
B15: Nb14.70 (VHH)
VHH: QVQLVESGGGLVQAGDSLSLVCTLPERSRFAVGWFRQASGKEREIVAAISWLGMNEYYGDSVKGRSTISRDNAKNTVRLQMDSLKREDTAVYYCAADYSLDNVRRTPRFWGQGTQVTVSS

Kd [2]: 1110 pM
koff [2]: 0.0031 s⁻¹
kon [2]: 2.79e+06 M⁻¹ s⁻¹
B16: Nb13.12 (VHH)
VHH: QVQLVESGGGLVQDEGSLRLSCAASGLIFSNYIVGWFRQTPGKEREFVAAIRWGGTSSYYSDSVKGRFTVSRDNAKNTLYLQMNNLKPEDTAVYYCATGPYYRGDYRVPDNMDYWGKGTQVTVSS
notes: also called R3-12; group G13; source: E. coli WK6 periplasm, purified (IMAC Ni-NTA, dialysis)

Kd [2]: 268 pM
koff [2]: 0.00221 s⁻¹
kon [2]: 8.24e+06 M⁻¹ s⁻¹
B18: Nb2.22 (VHH)
VHH: QVQLVESGGGLVQAGGSLRLSCAASGATFITYGMTWFRQAPGKEREFVAAVTGNGAGTTYLPSVKGRFTISRDNAKNTVYLQMSSLKPEDTAVYYCGGRRWVPATAVDQVAYWGQGTQVTVSS
notes: Labelled with 99mTc through its His tag for the biodistribution test only; also called R3-22; group G2; source: E. coli WK6 periplasm, purified (IMAC Ni-NTA, dialysis; size exclusion chromatography for the later tests); not shown: His6, C-terminal, kept

binding result [1]: binds
B19: Nb 10.63 (VHH)
VHH: QVQLVESGGGLVQAGGSLRLSCAASGRTFSDYNMGWFRQAPGKEREFVATISRSGAGTYYTDSVKGRFTISRDNAKNTVYLQMNNLKPEDSAAYYCAATLRVALSTITVGGYDYWGQGTQVTVSS

Kd [2]: 484 pM
koff [2]: 0.00223 s⁻¹
kon [2]: 4.62e+06 M⁻¹ s⁻¹
B23: Nb10.21 (VHH)
VHH: B19 VHH with D31S, S54N, L100Q, D113E
notes: also called R2-21; group G10; source: E. coli WK6 periplasm, purified (IMAC Ni-NTA, dialysis)

More lines, now with the values behind:

B4: Nb12.75 (VHH)
VHH: QVQLVESGGGLVQAGGSLRLSCAASLRTFSNAMGWFRQAPGKEREFVAVITWSGRVTNYSDSVKGRFTISKDNAKNTMYLQMNSLKLEDTAVYFCARESTFATANPKDYAYWGQGTQVTVSS
notes: also called R2-75; group G12; source: E. coli WK6 periplasm, purified (IMAC Ni-NTA, dialysis)
binding result [3]: binds

B5: Nb6.19 (VHH)
VHH: DVQLVESGGGLVQPGGSLRLSCAASGFTLSTYAMRWVRQAPGKGLEWVSDINSGGDVMSYRDSVKGRFTISRDDAKNTLYLQMNSLKPEDTAVYYCTNGWSRGQGTQVTVSS
notes: also called R2-19; group G6; source: E. coli WK6 periplasm, purified (IMAC Ni-NTA, dialysis)
Kd [2]: 470 pM
koff [2]: 0.000612 s⁻¹
kon [2]: 1.3e+06 M⁻¹ s⁻¹

B6: Nb6.39 (VHH)
VHH: B5 VHH with D1Q, L29F, S53Q, D56G, M58T, K65L, P88R, W100R
notes: also called R3-39; group G6; source: E. coli WK6 periplasm, purified (IMAC Ni-NTA, dialysis)
binding result [4]: binds

B7: Nb6.3 (VHH)
VHH: B5 VHH with D1Q, L29F, T31S, S53K, D56S, V57G, M58T, W100G
notes: also called R3-3; group G6; source: E. coli WK6 periplasm, purified (IMAC Ni-NTA, dialysis)
Kd [2]: 296 pM
koff [2]: 0.000848 s⁻¹
kon [2]: 2.87e+06 M⁻¹ s⁻¹

B8: Nb11.20 (VHH)
VHH: QVQLVESGGGLVQTGGSLRLSCAASGRTVSSYRMGWFRQAPGKEREFVCMITRSGFKTYCNDSVKGRFTISRDVAVNTVNLQMNSLKPEDTADYYCAATERWGTTATMTTANDYDYWGQGTQVTVSS
notes: also called R2-20; group G11; source: E. coli WK6 periplasm, purified (IMAC Ni-NTA, dialysis)
Kd [2]: 403 pM
koff [2]: 0.00139 s⁻¹
kon [2]: 3.46e+06 M⁻¹ s⁻¹

B10: Nb11.16 (VHH)
VHH: B11 VHH with A16G, A23V, Q76K, G105Y, Y107N, T109I
notes: also called R3-16; group G11; source: E. coli WK6 periplasm, purified (IMAC Ni-NTA, dialysis)
Kd [2]: 169 pM
koff [2]: 0.00392 s⁻¹
kon [2]: 2.32e+07 M⁻¹ s⁻¹

B13: Nb9.15 (VHH)
VHH: QVQLVESGGGLVQPGGSLRLSCAASGFSLASRTIAWFRQAPGKEREGVSCISRSGAFTNNADSVKGRFTISRDNAKNTVYLQMNSLKPEDTADYYCAVTSSWYSTCLRESIYDSWGQGTQVTVSS
notes: also called R3-15; group G9; source: E. coli WK6 periplasm, purified (IMAC Ni-NTA, dialysis)
Kd [2]: 26700 pM
koff [2]: 0.0317 s⁻¹
kon [2]: 1.19e+06 M⁻¹ s⁻¹

B17: Nb1.46 (VHH)
VHH: QVQLVESGGGLVQAGGSLRLSCAASGRTFSSYAMGWFRQAPGKERECVAAMDWSTSATYYADSVKGRFTISRDNAKNTVYLQMNSLKPEDTAVYYCAADLDYSDYGPFPGDMDYWGKGTQVTVSS
notes: The preparation held dimers beside monomers (SDS-PAGE); extra cysteine at position 52 (IMGT); also called R2-46; group G1; source: E. coli WK6 periplasm, purified (IMAC Ni-NTA, dialysis); not shown: His6, C-terminal, kept
stoichiometry N [7]: 2
binding result [3]: binds

B20: Nb10.66 (VHH)
VHH: B19 VHH with Q1D, A56G, T61S, D113N
notes: also called R2-66; group G10; source: E. coli WK6 periplasm, purified (IMAC Ni-NTA, dialysis)
Kd [2]: 314 pM
koff [2]: 0.00135 s⁻¹
kon [2]: 4.28e+06 M⁻¹ s⁻¹

B21: Nb10.16 (VHH)
VHH: B19 VHH with Q1D, Q13E, A14P, S54N, T58S
notes: Labelled with 99mTc through its His tag for the biodistribution test only; also called R2-16; group G10; source: E. coli WK6 periplasm, purified (IMAC Ni-NTA, dialysis; size exclusion chromatography for the later tests); not shown: His6, C-terminal, kept
Kd [2]: 524 pM
koff [2]: 0.000825 s⁻¹
kon [2]: 1.58e+06 M⁻¹ s⁻¹

B22: Nb10.17 (VHH)
VHH: B19 VHH with S30D, D31S, V79M, Y114I
notes: also called R3-17; group G10; source: E. coli WK6 periplasm, purified (IMAC Ni-NTA, dialysis)
Kd [2]: 174 pM
koff [2]: 0.00158 s⁻¹
kon [2]: 9.08e+06 M⁻¹ s⁻¹

B24: Nb8.37 (VHH)
VHH: QVQLVESGGGLVQPGGSLRLSCAASGLTLDYLRIAWFRQAPGKKRERVSCISITEGSANYADSVKGRFTISRDNAKNTVFLQMNSLKPEDTAVYYCAARRYYCSGTPTDYAYWGQGTQVTVSS
notes: Labelled with 99mTc through its His tag for the biodistribution test only; also called R3-37; group G8; source: E. coli WK6 periplasm, purified (IMAC Ni-NTA, dialysis; size exclusion chromatography for the later tests); not shown: His6, C-terminal, kept
Kd [2]: 790 pM
koff [2]: 0.00124 s⁻¹
kon [2]: 1.57e+06 M⁻¹ s⁻¹
